Reference: patent publication US11766414B2, “Compositions, delivery systems, and methods useful in tumor therapy” (Indi Molecular, Inc., priority 2020, dated 2023)
Like-named read-outs stand apart in the source and are kept apart here. Starred links: 1 amine or outer side, 2 acyl side, 3 side chain; linkers in the order of their positions; H or OH if unused. Positions of bridges follow the written chain, without caps; N, C: chain ends. Non-standard residues stand in square brackets, D forms with d. Residues, ends and D or L forms follow the SMILES beside them. Groups on a side chain read outwards from the residue. Triazole bridges read from a SMILES are 1,4-linked. *: point of attachment. DOTA = O=C(O)CN1CCN(CC(=O)O)CCN(CC(=O)*)CCN(CC(=O)O)CC1; Pteroyl = Nc1nc2ncc(CNc3ccc(C(=O)*)cc3)nc2c(=O)[nH]1; Biotin = O=C1N[C@H]2[C@H](CS[C@H]2CCCCC(=O)*)N1; Butanoyl(4-(4-MePh)) = Cc1ccc(CCCC(=O)*)cc1; Lys(N3) = [N-]=[N+]=NCCCC[C@H](N)C(=O)O; γGlu = O=C(O)[C@H](CCC(=O)[*:2])N[*:1]; AEEEA = NCCOCCOCCOCC(=O)O; Pra = C#CC[C@H](N)C(=O)O; X1 = NOCC(=O)*

Key:
FOLR1 = FOLR1 (Homo sapiens, UniProt P15328); test: ELISA assay of FOLR1 binding
Sequence of FOLR1 (P15328 25-234): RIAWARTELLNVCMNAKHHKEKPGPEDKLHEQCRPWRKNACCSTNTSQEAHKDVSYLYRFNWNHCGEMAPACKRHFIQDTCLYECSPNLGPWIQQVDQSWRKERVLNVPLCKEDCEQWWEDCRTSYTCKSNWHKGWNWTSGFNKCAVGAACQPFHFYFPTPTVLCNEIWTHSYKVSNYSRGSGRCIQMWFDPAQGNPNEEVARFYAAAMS
Source text: FIG. 5 is a diagram of ELISA assay of FOLR1 binding of heterobiligands.

[1] = Plasma protein binding, CD-1 mouse plasma; type: in vitro ADME; details: for fraction unbound at 4 h, 2 μM / recovery at 4 h, 2 μM: CD-1, mouse, plasma, AO-containing constructs, (FB); for fraction unbound at 4 h, 2 μM: read-out: Plasma % Bound, Mu; for recovery at 4 h, 2 μM / recovery: read-out: Plasma protein binding % Recovery, Mu; for fraction unbound / recovery: CD-1 mouse plasma; for fraction unbound: read-out: Plasma % Bound, Mu (converted)
Description: (§1) HTD 96 a/b regenerated cellulose membrane strips with mass cutoff of 12-14 kDa were soaked in ultra-pure water at room temperature for 1 hour. Each swelled membrane was then soaked in 20:80 ethanol:water for 20 minutes.
(§2) Just prior to the experiment, the membranes were re-soaked in ultra-pure water. Plasma was prepared by thawing under cold water. The plasma was centrifuged to remove any clots and pH was adjusted to 7.0-8.0. Test articles and control compounds were diluted to 2 μM. The dialysis device was loaded by transferring 150 μL of the test article (in triplicate) to the donor side. The dialysis device was placed in a humidified incubator at 37° C. with 5% CO2 in a shaking platform that rotated slowly for 4 hours. After incubation, 50 μL of the supernatant was taken from both sides and analyzed by LC-MS/MS.

[2] = Plasma protein binding, human plasma; type: in vitro ADME; details: for fraction unbound at 4 h, 2 μM / recovery at 4 h, 2 μM / fraction unbound: human, plasma; for fraction unbound at 4 h, 2 μM / recovery at 4 h, 2 μM: AO-containing constructs, (FB); for fraction unbound at 4 h, 2 μM: read-out: Plasma % Bound, Hu; for recovery at 4 h, 2 μM / recovery: read-out: Plasma protein binding % Recovery, Hu; for recovery / fraction unbound: human plasma; for fraction unbound: read-out: Plasma % Bound, Hu (converted)
Description: as §1, §2

human recombinant NEP = human recombinant NEP (Homo sapiens, UniProt P08473); test: NEP enzymatic cleavage assay (MALDI, HPLC); type: biochemical
Sequence of human recombinant NEP (P08473 whole entry): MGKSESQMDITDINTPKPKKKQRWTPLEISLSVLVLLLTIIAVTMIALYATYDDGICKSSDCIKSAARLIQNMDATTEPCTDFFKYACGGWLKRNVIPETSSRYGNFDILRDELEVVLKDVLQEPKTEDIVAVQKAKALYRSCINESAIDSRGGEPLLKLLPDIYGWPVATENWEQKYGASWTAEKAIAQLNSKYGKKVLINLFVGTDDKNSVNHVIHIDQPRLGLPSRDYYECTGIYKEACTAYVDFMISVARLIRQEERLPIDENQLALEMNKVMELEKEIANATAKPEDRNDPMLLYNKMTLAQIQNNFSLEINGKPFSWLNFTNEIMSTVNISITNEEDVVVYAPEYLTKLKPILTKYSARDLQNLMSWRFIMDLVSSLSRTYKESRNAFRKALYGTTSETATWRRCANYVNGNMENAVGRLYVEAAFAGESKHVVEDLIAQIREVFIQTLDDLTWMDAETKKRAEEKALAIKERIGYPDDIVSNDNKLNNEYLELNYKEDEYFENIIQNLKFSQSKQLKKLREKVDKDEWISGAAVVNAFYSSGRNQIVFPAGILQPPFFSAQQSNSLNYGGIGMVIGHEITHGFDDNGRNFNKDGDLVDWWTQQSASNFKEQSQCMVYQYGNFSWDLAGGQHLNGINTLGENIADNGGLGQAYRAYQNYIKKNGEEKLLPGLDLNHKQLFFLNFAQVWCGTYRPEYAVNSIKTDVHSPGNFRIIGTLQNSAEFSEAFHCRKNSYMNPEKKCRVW
Description: In order to test the susceptibility of GFK and MVK linkers to NEP-mediated cleavage, the peptide (Folate-hshta-Lys(MPBA)-Gly-Phe-Lys(DOTA) (SEQ ID NO:6)) was incubated with human recombinant NEP and analyzed the solution for the presence of cleaved adducts. MALDI was utilized to monitor the cleavage of a PCC heterobiligand that contains a NEP protease recognizable sequence (G-F-K). The PCC concentration was constant and the NEP concentration was titrated down from 10 nM to 1 nM, 0.1 nM, 0.01 nM, and no NEP. The NEP-mediated cleaved adduct was identified by mass. 10 μM PCC containing the GFK linker was combined with varying amounts of NEP. […] Below 0.1 nM no cleavage was observed. • Folate-hshta-Lys(MPBA)-Gly-Phe-Lys(DOTA) (SEQ ID NO:6) • Molecular weight 2231.42
The NEP-mediated cleavage was also monitored by HPLC. In agreement with the MALDI spectra, the HPLC chromatograms show depletion of the parent brush-border heterobiligand (retention time 17.1 minutes), dose-dependent on the amount of NEP spiked into the sample (10 nM, 1 nM, 0.1 nM, 0.01 nM, and no NEP). An appearance of a new peak (retention time 16.5 minutes) in concert with the depletion of the starting material is presumed to be the cleaved folate-containing peptide.
In order to test the specificity of NEP, a non-cleavable linker (PEG3) was also assayed.
To reduce the radioactive dose to the kidney, Indi ^177Lu-7327 was constructed to incorporate a GFK linker that is susceptible to cleavage by enzymes found predominately in the kidney's brush border. These enzymes cleave off the radionuclide-chelator complex, which is quickly eliminated by the kidney for excretion in the urine. The zinc metalloprotease neprilysin (NEP) is expressed with high abundance in the kidney. […] To confirm NEP-mediated cleavage of the GFK linker in Indi 7327, the peptide was incubated with recombinant human NEP at 37° C. for 1 h and analyzed by matrix-assisted laser desorption/ionization mass spectrometry (MALDI-MS) for the evolution of cleaved adducts (FIG. 42). […] The expected cleaved adduct (mass: 1283.16 m/z) appears in the samples containing 10, 1.0, and 0.1 nM NEP. […] Below 0.1 nM NEP, no cleavage was observed. In addition to confirming the selectivity of NEP for the GFK linker, it is also important to note that the remaining portions of the Indi 7327 were impervious to the enzyme.

`C[C@H](O)[C@H]1NC(=O)[C@@H](Cc2ccc(O)cc2)NC(=O)[C@@H](CCCNC(=N)N)NC(=O)[C@@H](CCC(=O)O)NC(=O)[C@@H](CC(=O)O)NC(=O)[C@@H](NC(=O)[C@H](Cc2cn(CCOCCOCCOCCNC(=O)CC[C@H](NC(=O)c3ccc(NCc4cnc5nc(N)[nH]c(=O)c5n4)cc3)C(=O)O)nn2)NC(=O)CCOCCOCCOCCOCCOCCOCCOCCOCCOCCOCCNC(=O)CCOCCOCCOCCOCCOCCOCCOCCOCCOCCOCCNC(=O)CCCC[C@@H]2SC[C@@H]3NC(=O)N[C@@H]32)Cc2cn(nn2)CCCC[C@@H](C(N)=O)NC1=O` [Pra(Az4-PEG3-folate)-deryt] gave an EC50 (FOLR1; read-out: EC50 (ELISA, FOLR1)) of 0.00027 µM.
Work on `C[C@H](O)[C@H]1NC(=O)[C@@H](Cc2cnc[nH]2)NC(=O)[C@@H](CO)NC(=O)[C@@H](Cc2cnc[nH]2)NC(=O)[C@@H](NC(=O)CC[C@H](NC(=O)c2ccc(NCc3cnc4nc(N)[nH]c(=O)c4n3)cc2)C(=O)O)Cc2cn(nn2)CCCC[C@@H](C(=O)NCCOCCOCCOCC(=O)N[C@@H](CCCCNC(=O)CON)C(N)=O)NC(=O)[C@@H](C)NC1=O` [compound 0328, Fol-hshta-PEG3-Lys(AO)] ({Pteroyl-γGlu}-[Pra][dH][dS][dH][dT][dA][Lys(N3)][AEEEA]K(X1)-NH2; triazole 1-7) yielded a fraction unbound at 4 h, 2 μM [1] of 0.798, a recovery at 4 h, 2 μM [1] of 115% and a fraction unbound at 4 h, 2 μM [2] of 0.57. For the same molecule, the recovery at 4 h, 2 μM [2] was 85%.
Molecule `C[C@H](O)[C@H]1NC(=O)[C@@H](Cc2c[nH]cn2)NC(=O)[C@@H](CO)NC(=O)[C@@H](Cc2c[nH]cn2)NC(=O)[C@@H](NC(=O)CC[C@H](NC(=O)c2ccc(NCc3cnc4nc(N)[nH]c(=O)c4n3)cc2)C(=O)O)Cc2cn(nn2)CCCC[C@@H](C(=O)NCCOCCOCCOCC(=O)N[C@@H](CCCCNC(=O)CN2CCN(CC(=O)O)CCN(CC(=O)O)CCN(CC(=O)O)CC2)C(N)=O)NC(=O)[C@@H](C)NC1=O` [compound 1189, Fol-hshta-PEG3-Lys(DOTA)] ({Pteroyl-γGlu}-[Pra][dH][dS][dH][dT][dA][Lys(N3)][AEEEA]K(DOTA)-NH2; triazole 1-7) has a fraction unbound [1] of 0.705, a recovery [1] of 97.4% and a recovery [2] of 102%. The fraction unbound [2] was 0.54.
`Cc1ccc(CCCC(=O)NCCCC[C@H](NC(=O)[C@@H]2CCCCn3cc(nn3)C[C@H](NC(=O)CC[C@H](NC(=O)c3ccc(NCc4cnc5nc(N)[nH]c(=O)c5n4)cc3)C(=O)O)C(=O)N[C@H](Cc3c[nH]cn3)C(=O)N[C@H](CO)C(=O)N[C@H](Cc3c[nH]cn3)C(=O)N[C@H]([C@H](C)O)C(=O)N[C@H](C)C(=O)N2)C(=O)NCC(=O)N[C@@H](Cc2ccccc2)C(=O)N[C@@H](CCCCNC(=O)COCCOCCOCCNC(=O)CN2CCN(CC(=O)O)CCN(CC(=O)O)CCN(CC(=O)O)CC2)C(=O)O)cc1` [compound 3302, Fol-hshta-Lys(4-MPBA)-Gly-Phe-Lys(PEG3-DOTA)] ({Pteroyl-γGlu}-[Pra][dH][dS][dH][dT][dA][Lys(N3)]K(Butanoyl(4-(4-MePh)))GFK([AEEEA-DOTA])-OH; triazole 1-7) showed a fraction unbound [1] of 0.035, a recovery [1] of 103% and a recovery [2] of 88.1%. For the same molecule, the fraction unbound [2] was 0.051 and the “in vitro Assay Data (NEP assay)” value (human recombinant NEP; Table 2) was “Cleavage of -G-F-K-”.
With `C[C@H](O)[C@H]1NC(=O)[C@@H](Cc2cnc[nH]2)NC(=O)[C@@H](CO)NC(=O)[C@@H](Cc2cnc[nH]2)NC(=O)[C@@H](NC(=O)CC[C@H](NC(=O)c2ccc(NCc3cnc4nc(N)[nH]c(=O)c4n3)cc2)C(=O)O)Cc2cn(nn2)CCCC[C@@H](C(=O)NCC(=O)N[C@@H](Cc2ccccc2)C(=O)N[C@@H](CCCCNC(=O)CON)C(=O)O)NC(=O)[C@@H](C)NC1=O` [compound 3303, Fol-hshta-Gly-Phe-Lys(AO)] ({Pteroyl-γGlu}-[Pra][dH][dS][dH][dT][dA][Lys(N3)]GFK(X1)-OH; triazole 1-7) the fraction unbound at 4 h, 2 μM [1] was 0.245, the recovery at 4 h, 2 μM [1] was 77.7% and the fraction unbound at 4 h, 2 μM [2] was 0.19. For the same molecule, the recovery at 4 h, 2 μM [2] was 80.6% and the “in vitro Assay Data (NEP assay)” value (human recombinant NEP; Table 7, AO-containing constructs) was “Cleavage of —G—F—K-”.
`C[C@H](O)[C@H]1NC(=O)[C@@H](Cc2c[nH]cn2)NC(=O)[C@@H](CO)NC(=O)[C@@H](Cc2c[nH]cn2)NC(=O)[C@@H](NC(=O)CC[C@H](NC(=O)c2ccc(NCc3cnc4nc(N)[nH]c(=O)c4n3)cc2)C(=O)O)Cc2cn(nn2)CCCC[C@@H](C(=O)NCCOCCOCCOCC(=O)NCC(=O)N[C@@H](Cc2ccccc2)C(=O)N[C@@H](CCCCNC(=O)CN2CCN(CC(=O)O)CCN(CC(=O)O)CCN(CC(=O)O)CC2)C(=O)O)NC(=O)[C@@H](C)NC1=O` [compound 6307, Fol-hshta-PEG3-Gly-Phe-Lys(DOTA)] ({Pteroyl-γGlu}-[Pra][dH][dS][dH][dT][dA][Lys(N3)][AEEEA]GFK(DOTA)-OH; triazole 1-7) gave a fraction unbound [1] of 0.594, a recovery [1] of 68.9% and a recovery [2] of 81.6%. The fraction unbound [2] was 0.587 and the “in vitro Assay Data (NEP assay)” value (human recombinant NEP; Table 2) was “Cleavage of -G-F-K-”.
With `C[C@H](O)[C@H]1NC(=O)[C@@H](Cc2ccc(O)cc2)NC(=O)[C@@H](CCCNC(=N)N)NC(=O)[C@@H](CCC(=O)O)NC(=O)[C@@H](CC(=O)O)NC(=O)[C@@H](NC(=O)COCCOCCOCCNC(=O)CCCC[C@@H]2SC[C@@H]3NC(=O)N[C@@H]32)Cc2cn(nn2)CCCC[C@@H](C(N)=O)NC1=O` [deryt] ({Biotin-AEEEA}-[Pra][dD][dE][dR][dY][dT][Lys(N3)]-NH2; triazole 1-7) the EC50 (FOLR1; PCC alone, read-out: EC50) was 10 µM.
